Patent US20210155689A1 (SHANGHAI PHARMAEXPLORER, published 2021)
Primed or numbered codes have the meaning given here. No end group written: not given here. Biotin′ = biotin label at the C-terminus

Tests used:
[1] = biological target: LAG-3-hFc protein (human LAG-3 extracellular region with hFc tag) (human) (UniProt P18627); test: ELISA, inhibition of LSECtin-His binding to coated LAG-3-hFc, antibody 8.000 nM, replicate 1
[2] = biological target: LAG-3-hFc protein (human LAG-3 extracellular region with hFc tag) (human) (UniProt P18627); test: FACS, inhibition of LAG-3-hFc binding to MHC II on Raji cells, antibody 0.274 nM
[3] = biological target: human LAG-3 on cells (HEK293-hLAG-3 stable cell line) (human) (UniProt P18627); test: FACS, HEK293-hLAG-3, antibody 0 nM
[4] = biological target: LAG-3-hFc protein (human LAG-3 extracellular region with hFc tag) (human) (UniProt P18627); test: ELISA, inhibition of LSECtin-His binding to coated LAG-3-hFc, antibody 1.600 nM, replicate 2
[5] = biological target: LAG-3-hFc protein (human LAG-3 extracellular region with hFc tag) (human) (UniProt P18627); test: ELISA, inhibition of LSECtin-His binding to coated LAG-3-hFc, antibody 8.000 nM, replicate 2
[6] = biological target: LAG-3-hFc protein (human LAG-3 extracellular region with hFc tag) (human) (UniProt P18627); test: ELISA, inhibition of LSECtin-His binding to coated LAG-3-hFc, antibody 1.600 nM, replicate 1
[7] = biological target: human LAG-3 on cells (HEK293-hLAG-3 stable cell line) (human) (UniProt P18627); test: FACS, HEK293-hLAG-3, antibody 0.013 nM
[8] = biological target: monkey LAG-3 on cells (HEK293-cLAG-3 stable cell line) (monkey); test: FACS, HEK293-cLAG-3, antibody 1.600 nM
monkey LAG-3 on cells (HEK293-cLAG-3 stable cell line) (monkey), sequence (P18627 other isoform, or with tags, fused parts or gaps limits assumed): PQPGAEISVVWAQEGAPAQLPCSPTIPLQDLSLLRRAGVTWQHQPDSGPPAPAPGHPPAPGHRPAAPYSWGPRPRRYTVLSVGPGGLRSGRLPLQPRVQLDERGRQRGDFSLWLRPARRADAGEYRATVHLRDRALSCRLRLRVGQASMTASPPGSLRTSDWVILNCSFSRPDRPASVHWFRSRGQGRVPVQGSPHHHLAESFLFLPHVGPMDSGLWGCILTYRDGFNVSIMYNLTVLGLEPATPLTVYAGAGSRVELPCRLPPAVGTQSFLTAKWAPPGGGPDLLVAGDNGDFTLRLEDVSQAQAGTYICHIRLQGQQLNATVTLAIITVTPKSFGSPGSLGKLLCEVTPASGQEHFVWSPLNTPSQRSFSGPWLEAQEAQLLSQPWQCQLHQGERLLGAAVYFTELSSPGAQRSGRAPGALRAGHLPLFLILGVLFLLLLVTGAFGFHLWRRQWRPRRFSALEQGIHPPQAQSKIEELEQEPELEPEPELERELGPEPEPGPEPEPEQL

[9] = biological target: monkey LAG-3 on cells (HEK293-cLAG-3 stable cell line) (monkey); test: FACS, HEK293-cLAG-3, antibody 200.000 nM
[10] = biological target: human LAG-3 on cells (HEK293-hLAG-3 stable cell line) (human) (UniProt P18627); test: FACS, HEK293-hLAG-3, antibody 200.000 nM
[11] = biological target: monkey LAG-3 on cells (HEK293-cLAG-3 stable cell line) (monkey); test: FACS, HEK293-cLAG-3, antibody 0.000 nM
[12] = biological target: T1, human LAG-3 on cells (HEK293-hLAG-3 stable cell line) (human, UniProt P18627 23-525); test: FACS, HEK293-hLAG-3, antibody 0.013 nM
T1 sequence: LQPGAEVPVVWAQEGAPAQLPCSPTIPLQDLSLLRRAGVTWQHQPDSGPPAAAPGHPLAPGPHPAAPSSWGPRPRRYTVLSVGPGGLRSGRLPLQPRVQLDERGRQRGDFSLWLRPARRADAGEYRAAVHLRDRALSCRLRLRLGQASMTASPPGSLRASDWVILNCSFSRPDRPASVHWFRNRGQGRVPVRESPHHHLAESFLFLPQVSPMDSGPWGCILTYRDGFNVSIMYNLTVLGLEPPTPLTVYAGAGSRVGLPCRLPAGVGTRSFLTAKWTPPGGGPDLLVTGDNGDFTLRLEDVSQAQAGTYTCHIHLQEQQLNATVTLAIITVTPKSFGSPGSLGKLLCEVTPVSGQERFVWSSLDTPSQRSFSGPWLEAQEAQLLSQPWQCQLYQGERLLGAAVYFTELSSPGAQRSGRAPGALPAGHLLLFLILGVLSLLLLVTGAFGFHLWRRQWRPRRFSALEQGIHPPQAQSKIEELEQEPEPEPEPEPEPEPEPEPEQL
From the text: A. The binding of antibodies to LAG-3 expressing cells was detected by Flow cytometry (FACS), wherein the method was according to that of Example 5.

[13] = biological target: T2, PHPAAPSSWGPRK-Biotin (human); test: peptide scanning ELISA, biotin peptide on streptavidin
T2 construct: Overlapping peptide of the outer loop of human LAG-3; also called LAG-3 Extra cyclic peptide
T2 peptide: PHPAAPSSWGPRK-{Biotin′}

[14] = biological target: T3, HPAAPSSWGPRPK-Biotin (human); test: as above
T3 construct: Overlapping peptide of the outer loop of human LAG-3; also called LAG-3 Extra cyclic peptide
T3 peptide: HPAAPSSWGPRPK-{Biotin′}

[15] = biological target: T1, human LAG-3 on cells (HEK293-hLAG-3 …); test: FACS, HEK293-hLAG-3, antibody 1.6 nM
[16] = biological target: T1, human LAG-3 on cells (HEK293-hLAG-3 …); test: FACS, HEK293-hLAG-3, antibody 0.013 nM; remark: listed apart in the source
[17] = biological target: T1, human LAG-3 on cells (HEK293-hLAG-3 …); test: FACS, HEK293-hLAG-3, antibody 0.064 nM
[18] = biological target: T1, human LAG-3 on cells (HEK293-hLAG-3 …); test: FACS, HEK293-hLAG-3, antibody 0.32 nM

In the case of hIgG control (antibody), the Inhibition rate (%) [1] is reported as -4.3%, the Inhibition rate (%) [2] is reported as 8.1% and the Mean fluorescence intensity [3] is reported as 4. The Inhibition rate (%) [4] was -7.4%, the Inhibition rate (%) [5] was -15.1% and the Inhibition rate (%) [6] was -21.6%. The Mean fluorescence intensity [7] was 4, the Mean fluorescence intensity [8] was 3.25 and the Mean fluorescence intensity [9] was 2.9. The Mean fluorescence intensity [10] was 3.1 and the Mean fluorescence intensity [11] was 2.86.

B1: 405B8H3 mouse-human chimeric antibody (antibody, V domains shown)
VH: QVQLQQSGAELVRPGASVTLSCKASGYTFTDYEMHWVKQTPVHGLEWIGATDPETGNSAYNQKFKGKAIMTADKSSSTAYMELRSLTSEDSAVYYCISTGWNDWGQGTSLTVSS
VL: DIKMTQSPSSMYASLGERVTITCKASQDINSYLSWFQQKPGKSPKTLIYRADRLLDGVPSRFSGSGSGQDYSLTISSLEYGDMGIYYCLQYDEFPYTFGGGTKLEIK
notes: also called mAb103-405B8H3
For B1, the Mean fluorescence intensity [12] was 9.

B2: 105F1E10 (mouse antibody purified from hybridoma) (antibody, V domains shown)
VH: EVQLQQSGPELVKPGASVKMSCRASGYTFTDFKMHWMKQSHGKSLEWIGYIAPNNGGTAYNQKFRGKATLTVNESSNTAYMELRSLTSEDSAVYYCVDWDDVDYWGQGTTLTVSS
VL: DIKMTQSPSSMYASLGERVTITCKASQDINSYLSWFQQKSGKSPKTLIYRANRLVDGVPSRFSGSGSGQDYSLTISSLEYEDMGIYYCLQYVEFPLTFGAGTKLELK
notes: also called mAb009-105F1E10
B2: binds [13]; binds [14].

B3: 556F6B8 mouse-human chimeric antibody (antibody, V domains shown)
VH: RVQLKQSGPGLVQPSQSLSITCTVSGFSLIKYGVHWVRQSPGEGLEWLGVIWRGGITDYNAAFMSRLSITKDNSKSQVFFKMNSLQADDTAIYYCAKWDGPLAMDYWGQGTSVTVSS
VL: DIVMTQSHKFLSTSVGDRVSITCKASQDVGTTVAWYQQKPGQSPKLLIYWASTRHTGVPDRFTGSGSGTDFTLTISNVQSEDLADYFCQQYSSYPYTFGGGTKLEIK
notes: also called mAb123-556F6B8; 556F8B8
B3 was tested, and the Mean fluorescence intensity [15] was 67, the Mean fluorescence intensity [16] was 6 and the Mean fluorescence intensity [17] was 12. For the same molecule, the Mean fluorescence intensity [18] was 29.
